Laboratory results taken from publication PMC12597263.

Molecular target: T1, recombinant human (rh) BMP2 (human) (UniProt P12643)
T1 sequence: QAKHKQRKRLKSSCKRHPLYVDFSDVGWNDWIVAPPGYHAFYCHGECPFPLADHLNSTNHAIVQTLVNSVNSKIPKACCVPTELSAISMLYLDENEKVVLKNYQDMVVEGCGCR

GREM1-mCherry uptake into HCT116 cells (integrated mCherry fluorescence per cell) from conditioned medium with 200 ng/ml BMP2 versus vehicle, overnight (16 h): 5 fold
B1: GREM1^WT-mCherry (human Gremlin1 fused to mCherry) (natural protein)
chain: KKKGSQGAIPPPDKAQHNDSEQTQSPQQPGSRNRGRGQGRGTAMPGEEVLESSQEALHVTERKYLKRDWCKTQPLKQTIHEEGCNSRTIINRFCYGQCNSFYIPRHIRKEEGSFQSCSFCKPKKFTTMMVTLNCPELQPPTKKKRVTRVKQCRCISIDLD
